How the values were obtained:
[1] = molecular target: HCMV gH/gL/gO protein complex (Human Cytomegalovirus (HCMV)); experiment: SPR Biacore 8K+, single-cycle kinetics, IgG captured on Protein A chip, gH/gL/gO as analyte, 1:1 fit
[2] = molecular target: HCMV Pentamer protein complex (gH/gL/UL128/UL130/UL131A) (Human Cytomegalovirus (HCMV)); experiment: SPR Biacore 8K+, single-cycle kinetics, IgG captured on Protein A chip, Pentamer as analyte, 1:1 fit
HCMV Pentamer protein complex (gH/gL/UL128/UL130/UL131A) (Human Cytomegalovirus (HCMV)), sequence (Q6SW67 24-719, chain 1 of 4): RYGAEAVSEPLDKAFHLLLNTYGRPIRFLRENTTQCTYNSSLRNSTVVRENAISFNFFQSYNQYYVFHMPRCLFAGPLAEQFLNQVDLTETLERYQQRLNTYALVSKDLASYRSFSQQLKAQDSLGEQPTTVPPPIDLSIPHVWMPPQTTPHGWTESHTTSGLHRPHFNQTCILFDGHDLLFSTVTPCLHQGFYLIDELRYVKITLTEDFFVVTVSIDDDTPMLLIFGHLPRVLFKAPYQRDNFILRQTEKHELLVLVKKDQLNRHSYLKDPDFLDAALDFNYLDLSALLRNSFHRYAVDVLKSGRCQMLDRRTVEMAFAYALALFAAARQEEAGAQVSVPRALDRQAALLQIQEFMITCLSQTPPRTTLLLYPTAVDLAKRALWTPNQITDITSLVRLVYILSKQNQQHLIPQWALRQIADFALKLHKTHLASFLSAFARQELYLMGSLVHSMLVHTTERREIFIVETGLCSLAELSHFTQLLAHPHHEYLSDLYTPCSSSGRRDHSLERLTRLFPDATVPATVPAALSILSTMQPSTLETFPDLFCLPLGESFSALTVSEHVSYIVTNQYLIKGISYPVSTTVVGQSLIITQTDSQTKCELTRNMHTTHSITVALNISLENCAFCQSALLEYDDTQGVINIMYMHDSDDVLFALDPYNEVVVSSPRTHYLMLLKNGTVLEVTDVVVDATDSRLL
HCMV Pentamer protein complex (gH/gL/UL128/UL130/UL131A) (Human Cytomegalovirus (HCMV)), sequence (F5HCH8 31-278, chain 2 of 4, further chain): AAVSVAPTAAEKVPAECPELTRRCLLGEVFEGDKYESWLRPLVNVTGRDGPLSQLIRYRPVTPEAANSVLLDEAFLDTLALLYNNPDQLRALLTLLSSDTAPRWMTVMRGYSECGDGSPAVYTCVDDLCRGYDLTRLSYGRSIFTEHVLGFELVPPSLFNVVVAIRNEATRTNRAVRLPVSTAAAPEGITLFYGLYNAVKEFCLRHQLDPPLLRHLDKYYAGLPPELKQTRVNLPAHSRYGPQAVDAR
HCMV Pentamer protein complex (gH/gL/UL128/UL130/UL131A) (Human Cytomegalovirus (HCMV)), sequence (P16837 28-171, chain 3 of 4, further chain): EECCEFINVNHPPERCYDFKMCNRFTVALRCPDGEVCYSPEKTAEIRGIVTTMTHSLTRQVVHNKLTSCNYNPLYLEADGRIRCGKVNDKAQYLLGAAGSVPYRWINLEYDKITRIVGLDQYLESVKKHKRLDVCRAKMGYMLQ
HCMV Pentamer protein complex (gH/gL/UL128/UL130/UL131A) (Human Cytomegalovirus (HCMV)), sequence (F5HCP3 26-214, chain 4 of 4, further chain): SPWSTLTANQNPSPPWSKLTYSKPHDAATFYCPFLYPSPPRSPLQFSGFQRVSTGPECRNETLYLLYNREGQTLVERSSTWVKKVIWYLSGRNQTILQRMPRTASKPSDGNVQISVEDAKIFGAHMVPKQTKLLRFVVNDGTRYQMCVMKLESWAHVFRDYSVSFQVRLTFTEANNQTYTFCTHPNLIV

B1: humanized 2C7 mAb (antibody, human IgG1, kappa, V domains shown)
VH: EVQLQQSGPELEKPGASVKISCKASGYSFTGYNMNWVKQSNGKSLEWIGNIDPYFGGTSYNQKFKGKATLTVDKSSSTAYMELKSLTSEDSAVYYCARHYGYFPWFAYWGQGTLVTVSA
VL: DIVLTQSPASLAVSLGQRATISCRASESVDSSGNSFMHWYQQKPGQPPKLLIYRASNLESGIPARFSGSGSRTDFTLTINPVGADDVATYYCQQSNEDPWTFGGGTKLEIKR
For B1, the Kd [1] was 1 nM, the koff [1] was 0.000416 s⁻¹ and the kon [1] was 415000 M⁻¹ s⁻¹. It also gave a Kd [2] of 0.721 nM, a koff [2] of 0.000322 s⁻¹ and a kon [2] of 447000 M⁻¹ s⁻¹.

B2: humanized 26B6 mAb (antibody, human IgG1, kappa, V domains shown)
VH: EVQLVESGGGLVKPGGSLKLSCAASGFTITDYYIYWLRQTPEKKLEWVAAISDGGRYTDYPDSVKGRFTMSSDNAKTNLYLQMGSLQSDDTGMYYCARWASYGYHWYFDVWGAGTTVTVSS
VL: DIQMTQTTSSLSASLGDRVTISCSASQDISNYINWYQQKRDGTVKLLIYDSSSLHSGVPSRFSGSGSGTDYSLTISNLEPEDFATYFCQQYSNLPPTFGGGTNLEIKR
B2 was tested, and the Kd [2] was 0.123 nM, the koff [2] was 5.3e-05 s⁻¹ and the kon [2] was 432000 M⁻¹ s⁻¹.

B3: humanized 23C2 mAb (antibody, human IgG1, kappa, V domains shown)
VH: DVQLQESGPGLVKPSQSLSLTCSVTGYSIKSGYYWNWIRQFPGNKLEWMGYISYGGDFTYNPSLKNRISITRDTSKNQFFLKLNSVTTEDTATYFCVREPNWESYFDIWGAGTTVTVSS
VL: DIQMTQSPASLSASVGETVTITCRASDNIYSYLTWYHQKQGKSPHLLVYNAKTLPEGVPLRFSGTGSGTQFSLKINSLQPEDFGIYFCLHDYGFPRTFGGGTILEVKR
B3 gave a Kd [2] of 1.03 nM, a koff [2] of 0.000285 s⁻¹ and a kon [2] of 275000 M⁻¹ s⁻¹.

— patent publication US20230174626A1
